In article PMC10527703 (Structure (London, England : 1993), 2023):

Target: the molecule itself
Test: ThT fluorescence aggregation + negative-stain TEM

Row | Protein | binding result
1 | KDNIQHVPGGGSVQIVYK (peptide, UniProt P10636-8 294-311, looked up) [R2R3_2Q] | binds
2 | TENLKHQPGGGQVQIVYQ (peptide, UniProt P10636-8 263-274, looked up) [R1R3_23Q] | binds
3 | TENLQHQPGGGQVQIVYK (peptide, UniProt P10636-8 263-274, looked up) [R1R3_12Q] | binds
4 | TENLQHQPGGGKVQIVYQ (peptide, UniProt P10636-8 263-274, looked up) [R1R3_13Q] | binds
